Measured values: patent US20260035426

Target: SB1902-C2
Sequence (chain, as listed by the source, chain 1 of 2): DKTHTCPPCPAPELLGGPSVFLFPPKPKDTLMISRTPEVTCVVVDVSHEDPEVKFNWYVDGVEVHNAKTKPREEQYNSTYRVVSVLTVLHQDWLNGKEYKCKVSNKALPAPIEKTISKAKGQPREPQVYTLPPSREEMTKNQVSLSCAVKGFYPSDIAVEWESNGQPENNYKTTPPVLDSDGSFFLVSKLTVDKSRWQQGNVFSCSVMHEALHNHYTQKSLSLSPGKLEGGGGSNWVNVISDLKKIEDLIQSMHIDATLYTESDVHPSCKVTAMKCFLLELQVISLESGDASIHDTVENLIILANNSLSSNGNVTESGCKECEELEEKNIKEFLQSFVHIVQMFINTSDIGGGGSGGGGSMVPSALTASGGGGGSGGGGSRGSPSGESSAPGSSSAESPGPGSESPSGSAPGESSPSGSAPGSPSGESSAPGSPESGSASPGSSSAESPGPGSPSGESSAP
Sequence (chain, as listed by the source, chain 2 of 2): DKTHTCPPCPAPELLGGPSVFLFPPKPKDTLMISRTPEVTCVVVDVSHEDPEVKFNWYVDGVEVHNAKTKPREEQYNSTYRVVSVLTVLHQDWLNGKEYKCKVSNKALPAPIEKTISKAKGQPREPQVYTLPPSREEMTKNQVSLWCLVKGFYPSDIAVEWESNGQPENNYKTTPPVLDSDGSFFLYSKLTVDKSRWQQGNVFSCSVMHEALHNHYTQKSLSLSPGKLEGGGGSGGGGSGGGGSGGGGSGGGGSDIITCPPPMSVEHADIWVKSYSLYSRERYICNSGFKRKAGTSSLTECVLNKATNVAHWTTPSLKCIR

B1: recombinant human MMP2 (protein)
chain: YNFFPRKPKWDKNQITYRIIGYTPDLDPETVDDAFARAFQVWSDVTPLRFSRIHDGEADIMINFGRWEHGDGYPFDGKDGLLAHAFAPGTGVGGDSHFDDDELWTLGEGQVVRVKYGNADGEYCKFPFLFNGKEYNSCTDTGRSDGFLWCSTTYNFEKDGKYGFCPHEALFTMGGNAEGQPCKFPFRFQGTSYDSCTTEGRTDGYRWCGTTEDYDRDKKYGFCPETAMSTVGGNSEGAPCVFPFTFLGNKYESCTSAGRSDGKMWCATTANYDDDRKWGFCPDQGYSLFLVAAHEFGHAMGLEHSQDPGALMAPIYTYTKNFRLSQDDIKGIQELYGASPDIDLGTGPTPTLGPVTPEICKQDIVFDGIAQIRGEIFFFKDRFIWRTVTPRDKPMGPLLVATFWPELPEKIDAVYEAPQEEKAVFFAGNEYWIYSASTLERGYPKPLTSLGLPPDVQRVDAAFNWSKNKKTYIFAGDKFWRYNEVKKKMDPGFPKLIADAWNAIPDNLDAVVDLQGGGHSYFFKGAYYLKLENQSLKSVKFGSIKSDWLGC
- digestion efficiency by SDS-PAGE: about 90% of the prodrug SB1902-C2 was digested
